In article PMC3727329, “Combining crystallography and EPR: crystal and solution structures of the multidomain cochaperone DnaJ” (Acta Crystallographica Section D: Biological Crystallography, 2013):

Target: the molecule itself
Assay: crystal structure; SeMet-DnaJ_(Δ108–114/4M), SeMet-SAD phasing, 2.9 Å; two dimers in the asymmetric unit; crystals from 14–16% PEG 6000, 0.1 M succinate/BTP pH 7.0 with adenine nucleotides

B1: SeMet-DnaJ_(Δ108–114/4M), Thermus thermophilus DnaJ lacking residues 108–114 with four residues substituted by methionine (natural protein, UniProt Q56237 1-280, looked up)
chain: MAAKKDYYAILGVPRNATQEEIKRAYKRLARQYHPDVNKSPEAEEKFKEINEAYAVMSDPEKRRIYDTYGTTEAPPPPPPGGYDFSGFDVEDFSEFFQELFGPGLFGKGRDLRAELPLTLEEAFHGGERVVEVAGRRVSVRMPPGVREGSVIRVPGMGGQGNPPGDLLLVVRMLPHPVFRLEGQDLYATLDVPAPIAVVGGKVRAMTLEGPVEVAVPPRTQAGRKMRLKGKGFPGPAGRGDLYLEVRITIPERLTPEEEALWKKLAEAYYARA
modifications: selenomethionine in place of methionine
notes: DnaJ (type II DnaJ, Hsp40 homologue) of Thermus thermophilus with J, GF and C-terminal domains; chains A-D of the model hold residues 2-272; Cloned NcoI/NotI into pET24d; also called DnaJ_(108114/4M); source: E. coli BL21(DE3) in minimal medium with L-selenomethionine, purified (heat denaturation, Ni-NTA, Superdex 200)
binding result: binds
